From IntAct's records for PubMed 19966800

Biological target: caga_helpy cagA (UniProt P55980)
Sequence (P55980 whole entry): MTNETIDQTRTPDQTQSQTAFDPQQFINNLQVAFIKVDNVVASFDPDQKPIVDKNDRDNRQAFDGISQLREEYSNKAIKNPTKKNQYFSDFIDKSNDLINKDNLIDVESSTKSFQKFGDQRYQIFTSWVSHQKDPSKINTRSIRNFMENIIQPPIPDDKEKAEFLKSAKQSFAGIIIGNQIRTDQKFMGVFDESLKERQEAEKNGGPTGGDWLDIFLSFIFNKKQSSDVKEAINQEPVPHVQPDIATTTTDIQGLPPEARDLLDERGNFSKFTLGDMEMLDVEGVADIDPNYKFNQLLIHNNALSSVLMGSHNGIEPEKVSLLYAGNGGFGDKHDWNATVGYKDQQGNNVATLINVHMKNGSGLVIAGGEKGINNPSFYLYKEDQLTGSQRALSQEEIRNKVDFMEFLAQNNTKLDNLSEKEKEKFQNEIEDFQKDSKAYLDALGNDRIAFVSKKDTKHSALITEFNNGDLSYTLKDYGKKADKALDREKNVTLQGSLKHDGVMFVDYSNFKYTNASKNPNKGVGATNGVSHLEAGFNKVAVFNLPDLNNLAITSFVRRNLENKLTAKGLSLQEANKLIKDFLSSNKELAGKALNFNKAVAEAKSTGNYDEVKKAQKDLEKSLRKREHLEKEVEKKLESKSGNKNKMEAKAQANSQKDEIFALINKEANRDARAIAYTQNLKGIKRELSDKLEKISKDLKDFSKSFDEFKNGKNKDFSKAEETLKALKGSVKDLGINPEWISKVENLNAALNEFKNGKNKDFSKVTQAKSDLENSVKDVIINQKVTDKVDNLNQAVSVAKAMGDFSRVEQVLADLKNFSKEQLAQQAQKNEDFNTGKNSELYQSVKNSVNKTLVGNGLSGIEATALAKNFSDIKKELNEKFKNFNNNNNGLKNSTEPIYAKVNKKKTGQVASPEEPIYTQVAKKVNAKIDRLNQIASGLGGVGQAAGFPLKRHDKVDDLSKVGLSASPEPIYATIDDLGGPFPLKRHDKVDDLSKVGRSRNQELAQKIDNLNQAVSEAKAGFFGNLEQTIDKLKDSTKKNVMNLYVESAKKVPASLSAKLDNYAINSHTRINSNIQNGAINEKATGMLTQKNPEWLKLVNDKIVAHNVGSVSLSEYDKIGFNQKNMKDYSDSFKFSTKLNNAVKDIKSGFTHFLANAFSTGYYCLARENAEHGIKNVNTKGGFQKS

Substance: Serine/threonine-protein kinase MARK2 (Homo sapiens), Q7KZI7 E136G;F138G;D139G
- effect of a mutation on the interaction: disrupting interaction
